How the values were obtained:
[1] = target: HBsAg-gp120 hybrid virus-like particles, gp120 89.6 with loop C deletion (424-432 …, beta 20-21 loop) (hepatitis B virus; HIV-1 strain 89.6); assay: ELISA, gp120-HBsAg particles coated on the plate; mean of six experiments
[2] = target: HBsAg-gp120 hybrid virus-like particles, gp120 89.6 with loop C deletion (424-432 …, beta 20-21 loop) (hepatitis B virus; HIV-1 strain 89.6); assay: ELISA, half maximal binding compared, gp120-HBsAg particles coated on the plate
[3] = target: HBsAg-gp120 hybrid virus-like particles, gp120 89.6 with loop C deletion (424-432 …, beta 20-21 loop) (hepatitis B virus; HIV-1 strain 89.6); assay: ELISA, gp120-HBsAg particles coated on the plate

Substance	fold increase of ELISA peak OD against 89.6 wild type [1] [fold]	shift in apparent affinity relative to 89.6 wild type [2] [fold]	fold increase of binding against 89.6 wild type [3] [fold]	peak OD as percent of the IIIB value (% of the IIIB value) [3]
monoclonal F105 (antibody)	7.1	> 100	> 10	
monoclonal IgG1 b12 (antibody)	2.6		3	80 to 100

— patent US20100215682A1
